Test results reported in publication PMC6576074, “NF‐YB1‐YC12‐bHLH144 complex directly activates Wx to regulate grain quality in rice (Oryza sativa L.)”.

T1: HIS-NF-YB1 (Oryza sativa L. (rice; cultivar not …, UniProt Q6Z348 1-186)
T1 sequence: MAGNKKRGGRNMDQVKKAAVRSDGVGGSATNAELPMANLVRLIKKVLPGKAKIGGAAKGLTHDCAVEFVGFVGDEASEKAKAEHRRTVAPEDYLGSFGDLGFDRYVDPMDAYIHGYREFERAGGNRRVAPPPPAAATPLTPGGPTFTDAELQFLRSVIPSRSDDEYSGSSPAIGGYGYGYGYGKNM

B1: HIS‐NF‐YB1 (natural protein)
chain: MAGNKKRGGRNMDQVKKAAVRSDGVGGSATNAELPMANLVRLIKKVLPGKAKIGGAAKGLTHDCAVEFVGFVGDEASEKAKAEHRRTVAPEDYLGSFGDLGFDRYVDPMDAYIHGYREFERAGGNRRVAPPPPAAATPLTPGGPTFTDAELQFLRSVIPSRSDDEYSGSSPAIGGYGYGYGYGKNM
B2: NF‐YB1‐pTRG (natural protein)
chain: MAGNKKRGGRNMDQVKKAAVRSDGVGGSATNAELPMANLVRLIKKVLPGKAKIGGAAKGLTHDCAVEFVGFVGDEASEKAKAEHRRTVAPEDYLGSFGDLGFDRYVDPMDAYIHGYREFERAGGNRRVAPPPPAAATPLTPGGPTFTDAELQFLRSVIPSRSDDEYSGSSPAIGGYGYGYGYGKNM
B3: Wx promoter probe 2 (dsDNA)
DNA 1: CAGGCACTCAGCTCGCTGCTGGTCCCGCACGTCGCCACACGATCGACGTACGCACGCGAG
DNA 2: CTCGCGTGCGTACGTCGATCGTGTGGCGACGTGCGGGACCAGCAGCGAGCTGAGTGCCTG
B4: Wx promoter probe 3 (dsDNA)
DNA 1: CGTAATTCCAAGTTCTTTTTTTTTTGTCAGCACGTACAAGCAGCCGCTAGCCTCGCCCTG
DNA 2: CAGGGCGAGGCTAGCGGCTGCTTGTACGTGCTGACAAAAAAAAAAGAACTTGGAATTACG
B5: Wx promoter probe 4 (dsDNA)
DNA 1: CAACGTGCCAACGTACGCACGCTAACGTGAGTCATGTAGCGTAATTCCAAGTTCTTTTTT
DNA 2: AAAAAAGAACTTGGAATTACGCTACATGACTCACGTTAGCGTGCGTACGTTGGCACGTTG
B6: Wx promoter probe 5 (dsDNA)
DNA 1: AGATCATATCGTCTCCAGACTCAAGTGCACGTTGATCGTTCGCTCACTGCTTCATCGATC
DNA 2: GATCGATGAAGCAGTGAGCGAACGATCAACGTGCACTTGAGTCTGGAGACGATATGATCT

Legend:
LGF2‐pBT = experiment: two-hybrid; bacterial two-hybrid (BacterioMatch II) in E. coli XL1‐Blue MRF′; NF‐YB1‐pTRG and NF‐YCs‐pBT; growth on M9/+Cm/+Ter/+3‐AT/+Strep/‐HIS against M9/+Cm/+Ter; intensity = ratio (%) of colony numbers
[1] = biological target: HIS‐NF‐YB1 (rice (Oryza sativa L.)) (UniProt Q6Z348)
[2] = biological target: GST‐NF‐YC12 (rice (Oryza sativa L.))
[3] = biological target: NF‐YC12‐pBT (rice (Oryza sativa L.)); experiment: two-hybrid; bacterial two-hybrid (BacterioMatch II) in E. coli XL1‐Blue MRF′; NF‐YB1‐pTRG and NF‐YCs‐pBT; growth on M9/+Cm/+Ter/+3‐AT/+Strep/‐HIS against M9/+Cm/+Ter; intensity = ratio (%) of colony numbers
HIS-NF-YB1 = biological target: T1, HIS-NF-YB1; experiment: EMSA; EMSA: Beyotime EMSA/Gel-shift binding buffer (composition and pH not given), 10 uL, 2 nmol biotin probe, 5 nmol protein, 20 min preincubation + 20 min at 25 C; conditions: protein: recombinant; tags: N-terminal His (pET28a); label: biotin; blunt

| Molecule | binding result (HIS-NF-YB1) | further results |
| --- | --- | --- |
| Gal11‐pTRG | – | interaction intensity (ratio of colony numbers on selective and non-selective medium) (LGF2‐pBT): 33.8% |
| HIS‐bHLH144‐FLAG (natural protein) | – | half-life of HIS‐NF‐YB1 in a cell-free degradation assay with GST‐NF‐YC12 and HIS‐bHLH144‐FLAG added (heterotrimer); around 15 min for HIS‐NF‐YB1 alone [1]: 40 min |
| B1 | – | half-life of HIS‐NF‐YB1 in a cell-free degradation assay (total protein extract of 10 DAG rice seedlings) with GST‐NF‐YC12 added; around 15 min for HIS‐NF‐YB1 alone [2]: 30 min |
| B2 | – | interaction intensity (ratio of colony numbers on selective and non-selective medium) [3]: 63.7% |
| B3 | no binding | – |
| B4 | no binding | – |
| B5 | no binding | – |
| B6 | no binding | – |
